Values quoted from earlier work as cited in paper PMC5430633.

Biological target: LC3B (Homo sapiens) (UniProt Q9GZQ8)

Which Kd does the source give for Nix LIR (from UniProt O60238) here?
The Kd was 91 µM.
